Test results taken from article PMC5559510.

Columns and labels:
[1] = molecular target: TMR-labeled SNAP-25a (S187C) (human) (UniProt P60880); assay: FRET or BRET; one-membrane system, 37°C; Munc18-1/full-length syntaxin-1 on t-liposomes, TMR-SNAP-25a (S187C), BDPY-synaptobrevin-2 (29–93, S61C) in solution, 0.5 μM Munc13-1 C1-C2B-MUN, with or without 0.5 μM Syt1 C2AB, 0.2 mM EDTA; two-phase exponential decay
[2] = molecular target: TMR-labeled SNAP-25a (S187C) (human) (UniProt P60880); assay: FRET or BRET; membrane-free, 37°C; 5 μM co-expressed Munc18-1/syntaxin-1 (1–261), 5 μM TMR-SNAP-25a (S187C), 1 μM BDPY-synaptobrevin-2 (29–93, S61C), 30 μM Munc13-1 MUN domain, with or without 2 μM Syt1 C2AB; fitted to a one-phase exponential decay
[3] = molecular target: TMR labeled SNAP-25a Δ9 (residues 1–197, S187C) (human) (UniProt P60880); assay: FRET or BRET; two-membrane system, 37°C; Munc18-1/full-length syntaxin-1 on t-liposomes, BDPY-full-length synaptobrevin-2 (S61C) on v-liposomes, TMR-SNAP-25a Δ9 (S187C), 0.5 μM Munc13-1 C1-C2B-MUN, with or without 0.5 μM Syt1 C2AB, 0.2 mM EDTA; two-phase exponential decay

| kfast of ternary SNARE complex formation (no Syt1) [1] [s⁻¹] | kfast of ternary SNARE complex formation (with Syt1 C2AB) [1] [s⁻¹] | τfast of ternary SNARE complex formation (no Syt1) [1] [s] | τfast of ternary SNARE complex formation (with Syt1 C2AB) [1] [s] | kfast of ternary SNARE complex formation (no Syt1) [2] [s⁻¹] | kfast of ternary SNARE complex formation (with Syt1 C2AB) [2] [s⁻¹] | τfast of ternary SNARE complex formation (no Syt1) [2] [s] | τfast of ternary SNARE complex formation (with Syt1 C2AB) [2] [s] | kfast of ternary SNARE complex formation (no Syt1) [3] [s⁻¹] | kfast of ternary SNARE complex formation (with Syt1 C2AB) [3] [s⁻¹] | τfast of ternary SNARE complex formation (no Syt1) [3] [s] | τfast of ternary SNARE complex formation (with Syt1 C2AB) [3] [s] | Substance |
| --- | --- | --- | --- | --- | --- | --- | --- | --- | --- | --- | --- | --- |
| 0.00135 | 0.0152 | 740 | 65.8 | 0.0013 | 0.00354 | 770 | 282 |  |  |  |  | BDPY-labeled synaptobrevin-2 cytoplasmic domain (residues 29–93, S61C) (from UniProt P63045 29-93) (domain or fragment) |
|  |  |  |  |  |  |  |  | 0.0123 | 0.0249 | 81.4 | 40.1 | BDPY-labeled full-length synaptobrevin-2 (residues 1–116, S61C), on v-liposomes (from UniProt P63045 1-116) (natural protein) |
